Source: the RNAGym collection of RNA variant scans (doi:10.7554/elife.90254)

B1: OR4K15 (parent)
chain: GUUAACGGUCAUAGGCCAUGGAAACUAGGAGCACCAUUUCGCUGCCAGUGAAGAAAUGAACAAAGAAAAUCUGGGCCAGGCAGGCAUCAAAAGAAAUAGUCUUGCGCUCAACCAGAAAGUCUGUAAUCAUUUUAAGGGUA

Variants of: B1
Experiment: self-cleavage, relative activity (ratio to wild type); higher = more cleavage; in vitro, sequencing; the parent is a self-cleaving ribozyme

Variant	self-cleavage
U2C U100C	1.61
U127C A135G	0.83
U108A U122C	0.04
A91G U122G	2.58
U2C U72C	0.15
U39C U127C	1.18
A30G U57C	1.29
A55G C128A	1.06
A22G A90G	1.12
U26C A36G	1.47
U43C U102C	2.15
U57G A68G	1.53
A13G C17U	1.46
A4G A24C	1.03
A54G C128U	1.08
A24U A91G	1.09
C6U G80A	0.22
G21U U108C	0.02
U139C	1.04
U38C A47G	0.74
G21A A51G	1.66
U19C G93U	1.5
C6U A135G	2.17
C16G	0.85

Variant	self-cleavage
A64G A69G	1.36
G14U A90G	1.34
A11G U127A	1.17
A47C A129G	0.74
A13G G80A	0.43
A18G U120A	2.34
C61U A140G	1.73
A67G U120G	1.4
A13U A129G	1.57
U26C U100C	1.45
G28U U100A	0.25
U2C G119A	1.05
C42U A95G	2.84
G73U C105U	0.01
A86C	1.22
A27G U122A	1.47
A27U A116G	0.63
U39C U87C	1.31
A92U A96G	1.85
A11U U49C	1.38
A24U U57C	0.73
G65U G83U	0.44
A86U A94G	1.72
A62G G73A	0.15

Variant	self-cleavage
G14C A59G	1.46
A24C U87C	1.44
A47G U97C	1.08
U12A A66G	0.9
C35U A51G	1.06
A78U A117G	0.36
A4C A62U	0.93
U37C U133A	1.34
A60G U97A	1.69
G74A U108C	0.01
A23G U87C	0.61
A52U U122A	0.96
C81U A134G	0.53
G106C A116G	0.01
A23G A36G	1.43
A24C G123A	1.91
A13C G79U	0.17
U2C U127A	2.05
A24U G123A	1.3
U37C A51G	1.49
U26C A118C	0.51
U12C A114G	0.19
A11U U19C	1.85
A91G A116G	0.55

Variant	self-cleavage
A5U A110G	0.29
G83A A118G	1.41
U19C A60G	1.23
A13G C71U	0.46
A36U U97A	2.69
A22U U43A	2.1
A66U A67G	0.98
G80A A114U	0.05
U102C A117G	2.72
U2A U9C	1.52
A52U A63G	1.73
C45A A129G	0.87
A86G A89G	1.42
U120C C128A	0.69
C35A U43A	2.06
U49C A118U	0.62
G80A A86U	0.24
A23G U124A	0.25
A59U A118G	0.75
A54G U57A	1.26
A62G C105A	0.03
U26A U120G	1.26
A62G A94U	2.08
U3A U70C	1.14

Variant	self-cleavage
U120C G138U	2.11
A56U A114U	0.04
A98U A114G	0.5
C16G G83A	1.21
U19A U131C	1.46
U38A A47U	1.31
A68G A114G	0.68
U43C A47G	0.98
A59G U132A	0.98
A22U C121A	2.6
A55U A67G	1.12
A11G A140G	0.96
A33U U87C	1.74
A89C A126U	0.86
U132C A134G	1.05
U26A A47G	0.94
A13U A78G	0.2
A125U A134G	1.48
A18C U87C	0.67
U3A A78G	0.14
A51U U87A	1.92
G73A A118G	0.14
A62G U102C	1.19
U2A A62G	1.23

Variant	self-cleavage
A54G A91C	1.05
A63G U103A	0.88
A23G A86U	1.25
A67G U87C	1.19
U139C A140C	1.42
A36U A91G	1.42
A5G A67C	0.63
U12A U49A	0.48
A30U A64G	1.56
A82G A129U	0.22
A30G C40A	1.42
A5G U72C	0.41
G21A A135C	1.25
A4G U120A	1.62
U102G U120A	0.77
A47G U102G	0.41
A11G A125G	0.38
A56G A125U	1.32
A96G U139C	1.42
A55G U127A	1.65
A18U U72C	0.1
A94U A117G	1.95
C16G U37C	1.55
U2A G65A	0.89

Variant	self-cleavage
A92U U132C	0.8
U87G U103C	0.22
U39C A94C	1.43
A82G A116G	0.26
A116U U127C	0.23
A62G A98G	0.4
U38C U87A	1.6
A51C A78G	0.24
U120G U139A	1.61
A129U	0.65
U39C G79U	0.1
A66C U100C	1.6
U26A A91G	1.38
U43C U57G	0.87
A56G G115U	0.03
A13G C105A	0.15
U49A	1.05
A59G U127C	0.7
A11G U122C	1
A82C A89G	0.16
A59C U122C	1.06
U43C U97G	1.6
C40A U49C	1.85
